Data reported in publication PMC8537121.

Legend:
[1] = biological target: Human MAP/Microtubule Affinity Regulating Kinase 4 (MARK4), recombinant, containing both kinase and UBA domains (human) (UniProt Q96L34); assay: ITC; VP-ITC; 15 µM MARK4 in the sample cell, 200 µM irisin in the syringe; two-site model
[2] = biological target: Human MAP/Microtubule Affinity Regulating Kinase 4 (MARK4), recombinant, containing both kinase and UBA domains (human) (UniProt Q96L34); assay: other fluorescence titration; quenching of the intrinsic fluorescence of MARK4 (emission at 344 nm) by irisin, 0-1 µM; fitted to a modified Stern-Volmer equation
[3] = biological target: Human MAP/Microtubule Affinity Regulating Kinase 4 (MARK4), recombinant, containing both kinase and UBA domains (human) (UniProt Q96L34)

UniProt Q96L34, sequence (Q96L34 44-370): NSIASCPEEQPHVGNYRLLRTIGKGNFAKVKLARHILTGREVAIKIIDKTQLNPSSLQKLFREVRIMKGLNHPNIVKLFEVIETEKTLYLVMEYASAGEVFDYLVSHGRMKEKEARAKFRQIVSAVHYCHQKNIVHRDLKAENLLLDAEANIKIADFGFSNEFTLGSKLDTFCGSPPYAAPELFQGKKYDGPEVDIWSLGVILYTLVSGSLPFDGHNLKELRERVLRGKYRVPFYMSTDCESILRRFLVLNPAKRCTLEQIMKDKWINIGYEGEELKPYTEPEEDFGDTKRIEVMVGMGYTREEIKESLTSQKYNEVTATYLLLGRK

## Human irisin (natural protein)
[1]
  Ka1 (site 1 of the two-site model): 2590 M⁻¹
  Ka2 (site 2 of the two-site model): 1.19e+06 M⁻¹
  dH1 (site 1 of the two-site model): -1550 kcal/mol
  dH2 (site 2 of the two-site model): 190 kcal/mol
[2]
  Ka: 8e+06 M⁻¹
[3]
  IC50 of inhibition of MARK4 kinase activity (ATPase assay), irisin 0-15 µM: 2.71 µM
